We go through 22 sequences from the supplement of paper PMC9170038.

In the series the test system is K4 kissing-loop RNA reporter. The experiment in a line: apparent KD of K4 kissing-loop reporter; higher = weaker reporter binding. Particulars: Eterna round: R107. On the procedure:
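RNA-MaP round R107: designed RNA switches with theophylline, tryptophan, arginine or FMN aptamers are transcribed on-chip within common flanks. They are titrated with a labelled K4 kissing-loop RNA reporter in RNA-MaP buffer (100 mM Tris pH 7.5, 80 mM KCl, 4 mM MgCl2), without ligand or with the indicated ligand. Median apparent KD per design.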

[1] abbreviates: input ligand: theophylline 20 uM.
Where [2] appears, read: input ligand: tryptophan 2.4 mM.
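Note: bound reporter read as fluorescence of individual clusters on recovered sequencing chips by microscopy, with normalized cluster intensities fitted with a binding model.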

“CCCUCACGAGUGAUGUUCGUAGGGUACAGUCAGGAUAUCAUGCGGUUGAGAAGGGACAGAGAAGGCGGCGACGGGUUGCUUAUCU [Atenus]”: the “apparent KD of K4 kissing-loop reporter” value is 206 nM (input ligand: FMN 200 uM); 243 nM (input ligand: arginine 13.2 mM); 277 nM (input ligand: none); 200 nM under setting [1]; 218 nM under setting [2].
The corresponding values for “CCGAUACAUUAUUCUACGGCCGAGAGCGAUACCAGCCAAAUUUAUGGCCCUUGGCAGCGCAGAUGCAGUGAUGUUGCAUACAUAC [Same State Theophylline A GF 18]” are 102 nM, 158 nM, 95.6 nM, 166 nM and 83.2 nM.
On the same counts, the results for “CCGAUGGGUACAGGAUAUGCCAGUGAUGUUGGUUUAGAUGGACCCAGAAGGAGACACCAGACGGAGGCAGAAGGGUAGCAAGGGA [Raarriis]” are 140 nM, 108 nM, 106 nM, 100 nM and 105 nM.
As for “CCGCCGGUCGGAAGGAGCGCACGCCAGAGUGAUGUUCUGGCGCAGGCAUUUAGUGCCCGCGUGCAGGUAGGUCGCCGAUUCUGGC [Arlaaa]”, the “apparent KD of K4 kissing-loop reporter” value is 341 nM (input ligand: FMN 200 uM); 310 nM (input ligand: arginine 13.2 mM); 423 nM (input ligand: none); 234 nM under setting [1]; 270 nM under setting [2].
“CCGCUACCCUCAGGAUAUUAAAUAUUAGUGAUGUUAAUAAACCGAUGGCGAAAGCCAUCGGUAUGUUAAGAAGGGAGGGUAGCGG”: the “apparent KD of K4 kissing-loop reporter” value is 138 nM (input ligand: FMN 200 uM); 847 nM (input ligand: arginine 13.2 mM); 974 nM (input ligand: none); 949 nM under setting [1]; 965 nM under setting [2].
For “CCGCUACCCUCAGGAUAUUAAGUAUUAGUGAUGUUAGUAAACCGAUGGCGAAAGCCAUCGGUAUGUUGAGAAGGGAGGGUAGCGG [whbob_SS_FMNB__2th198]”, the “apparent KD of K4 kissing-loop reporter” value is 356 nM (input ligand: FMN 200 uM); 946 nM (input ligand: arginine 13.2 mM); 1170 nM (input ligand: none); 847 nM under setting [1]; 923 nM under setting [2].
“CCUAUCUCAUACGAUACCAGUCAAAUAAAUUAUAACGAGUGAUGUUCGAAAUGCCAUCACGACCCUUGGCAGCGUAUGGGAUAGG [Ex Theophylline B K4 1]”: the “apparent KD of K4 kissing-loop reporter” value (input ligand: FMN 200 uM) amounted to 304 nM; the “apparent KD of K4 kissing-loop reporter” value (input ligand: arginine 13.2 mM) stood at 123 nM; the “apparent KD of K4 kissing-loop reporter” value (input ligand: none) was found to be 212 nM; the “apparent KD of K4 kissing-loop reporter” value under setting [1] was found to be 186 nM; the “apparent KD of K4 kissing-loop reporter” value under setting [2] stood at 125 nM.
As for “CCUAUCUCAUACGAUACCAGUCUAUUAAAACGAGUGAUGUUCGAAUAUUUGCCAUAUAAUGACCCUUGGCAGCGUAUGGGAUAGG [Ex Theophylline B K4 9]”, the “apparent KD of K4 kissing-loop reporter” value (input ligand: FMN 200 uM) was 221 nM; the “apparent KD of K4 kissing-loop reporter” value (input ligand: arginine 13.2 mM) turned out to be 229 nM; the “apparent KD of K4 kissing-loop reporter” value (input ligand: none) amounted to 244 nM; the “apparent KD of K4 kissing-loop reporter” value under setting [1] amounted to 230 nM; the “apparent KD of K4 kissing-loop reporter” value under setting [2] came out at 190 nM.
The corresponding values for “CCUAUCUCGUACGAUACCAGACUAUGAUCUUUGAUCAAUGCCAUCACCGAGUGAUGUUCGGUCCCUUGGCAGCGUAUGAGAUGGG [#12 K4 Theophylline B Exclusion]” are 179 nM, 143 nM, 170 nM, 202 nM and 155 nM.
On to “CCUAUCUCUUACGAUACCAGUCAAUGAUAUUUUAUCAAUGCCCUCACCGAGUGAUGUUCGGACCCUUGGCAGCGUCUGGGAUAGG [pvppimullin]”, for which the “apparent KD of K4 kissing-loop reporter” value is, setting by setting: (input ligand: FMN 200 uM) 223 nM; (input ligand: arginine 13.2 mM) 170 nM; (input ligand: none) 212 nM; under setting [1], 190 nM; under setting [2], 191 nM.
As for “CCUCACGUAGGACUAGUGAUGUUAGACUACCGAGGACCGGUACGGCCGCCACUCGUCGUACAAGAUAACCUUCCGCCAGUAUACA”, the “apparent KD of K4 kissing-loop reporter” value is 113 nM (input ligand: FMN 200 uM); 91.8 nM (input ligand: arginine 13.2 mM); 99.9 nM (input ligand: none); 83.6 nM under setting [1]; 108 nM under setting [2].
On the same counts, the results for “CCUUCUCUUGAUAGUGAUGUUGUCAAGGGCAAGGAUAUCAUCUUAAUGAGAAGGUGUCCUUGAUAACAUGGAGGUCUGAAACAGA [Omei KL FMN A Exc C v7]” are 123 nM, 305 nM, 301 nM, 380 nM and 375 nM.
On to “CGAGCGGAGUGAUGUUCCGUGCCAGCAGAUACCAGAUUGAAAGAGAUCCCUUGGCAGCUGCGUCACACCCUUACGUGAUAGGACC [theeternabot_sameState_KL_Theo_A_32]”, for which the “apparent KD of K4 kissing-loop reporter” value by setting is: (input ligand: FMN 200 uM) 244 nM; (input ligand: arginine 13.2 mM) 178 nM; (input ligand: none) 239 nM; under setting [1], 275 nM; under setting [2], 165 nM.
Regarding “CGAGUCCUGAGGAGUGAUGUUCCUCGGCCACGAGGACCGGUACGGCCGCCACUCGUUACUCGGGCUUAGCAGCAAGCACUAAGCU [Acesote]”, the “apparent KD of K4 kissing-loop reporter” value by setting is: (input ligand: FMN 200 uM) 348 nM; (input ligand: arginine 13.2 mM) 317 nM; (input ligand: none) 334 nM; under setting [1], 302 nM; under setting [2], 127 nM.
For “CGAGUCCUGAGGAGUGAUGUUCCUCGGCCACGAGGACCGGUACGGCCGCCACUCGUUACUCGGGCUUAGUAGCUAGCACUAAGCU [Quedmaon]”, the “apparent KD of K4 kissing-loop reporter” value is, setting by setting: (input ligand: FMN 200 uM) 265 nM; (input ligand: arginine 13.2 mM) 171 nM; (input ligand: none) 186 nM; under setting [1], 232 nM; under setting [2], 101 nM.
The corresponding values for “CGAGUGAUGUUCGUUCGUUUAUUUCGGUGACAGGAUAUGCGGAAACGCAGAAGGGUCACCUUUGGGUUACCGGAAUUAACGUUAU [Ex FMN A 30]” are 640 nM, 455 nM, 561 nM, 414 nM and 584 nM.
“CGAGUGAUGUUCGUUUUUUACUCUUUUUGACAGGAUAUGCGGAAACGCAGAAGGGUCACCUUUGAGUUAAAAGGAGUUAUUUUUU [Ex FMN A 19]”: the “apparent KD of K4 kissing-loop reporter” value runs as follows: (input ligand: FMN 200 uM) 345 nM; (input ligand: arginine 13.2 mM) 269 nM; (input ligand: none) 318 nM; under setting [1], 305 nM; under setting [2], 317 nM.
On to “CGCAGUGAUGUUGCGAAUAUAAUAACGGAAGGAGCGCGUGAAAACGCAGGUAGGUCGCCGUUUGGUAUGAUGGAAACAUCGUACC [Arginine A K4 11]”, for which the “apparent KD of K4 kissing-loop reporter” value runs as follows: (input ligand: FMN 200 uM) 135 nM; (input ligand: arginine 13.2 mM) 138 nM; (input ligand: none) 132 nM; under setting [1], 106 nM; under setting [2], 123 nM.
For the sequence “CGCAGUGAUGUUGCGAAUAUAAUUACGGAAGGAGCGCGUGAAAACGCAGGUAGGUCGCCGUUUGGUAUGAUGGAAACAUCGUACC [Arginine A K4 10]”, the “apparent KD of K4 kissing-loop reporter” value was 140 nM (input ligand: FMN 200 uM); 125 nM (input ligand: arginine 13.2 mM); 147 nM (input ligand: none); 115 nM under setting [1]; 117 nM under setting [2].
On the same counts, the results for “CGCAGUGAUGUUGCUAUUAUUCUUGGUUAACGAGGACCGGUACGGCCGCCACUCGAUGUCUGUCUAGUCCAGUGUUUUUUUGAGU [whbob_EX_Tryp_A_t8]” are 351 nM, 467 nM, 506 nM, 579 nM and 228 nM.
The corresponding values for “CGCAGUGAUGUUGCUAUUAUUCUUGGUUAACGAGGACCGGUACGGCCGCCACUCGAUUUCUAUCUAAUCCAGUGUUUUUUUGAGU [JR_ExcTryptoA_Sub003]” are 301 nM, 377 nM, 396 nM, 458 nM and 204 nM.
As to “CGCGCGGGUUUGAGAGGGUUUGCGCGAAGUGAGGAUAUUUAGGGAGAAAGAAGGCACUAUAAAAUAUAGUGAUGUUAUAUAAGGG [SSFMNA.I]”, the “apparent KD of K4 kissing-loop reporter” value by setting is: (input ligand: FMN 200 uM) 627 nM; (input ligand: arginine 13.2 mM) 117 nM; (input ligand: none) 251 nM; under setting [1], 139 nM; under setting [2], 269 nM.
